This note sets out measurements from paper PMC3585378 (PLoS ONE, 2013).

In one assay the target is T1, GST-ubiquitin (UniProt P0CG48 1-76).
T1 construct: also called GST-tagged ubiquitin
In words: pull-down. The settings on record: both partners purified.

For another assay, the target named is His6-ubiquitin (UniProt P0CG48 1-76). In words: pull-down. Conditions: both partners purified.

B1: His6-OspG (natural protein)
chain: MKITSTIIQTPFPFENNNSHAGIVTEPILGKLIGQGSTAEIFEDVNDSSALYKKYDLIGNQYNEILEMAWQESELFNAFYGDEASVVIQYGGDVYLRMLRVPGTPLSDIDTADIPDNIESLYLQLICKLNELSIIHYDLNTGNMLYDKESESLFPIDFRNIYAEYYAATKKDKEIIDRRLQMRTNDFYSLLNRKYL
notes: source: E. coli BL21 (DE3), purified (Ni-NTA)
With B1, the binding result in the assay with GST-ubiquitin was “binds”.

B2: GST-tagged OspG protein (GST-OspG) (natural protein)
chain: MKITSTIIQTPFPFENNNSHAGIVTEPILGKLIGQGSTAEIFEDVNDSSALYKKYDLIGNQYNEILEMAWQESELFNAFYGDEASVVIQYGGDVYLRMLRVPGTPLSDIDTADIPDNIESLYLQLICKLNELSIIHYDLNTGNMLYDKESESLFPIDFRNIYAEYYAATKKDKEIIDRRLQMRTNDFYSLLNRKYL
notes: source: E. coli BL21 (DE3), purified (glutathione-Sepharose)
Turning to B2, in the assay with His6-ubiquitin, the binding result is “binds”.
